For one test, the system named is human LECs. Put plainly: Human LECs incubated with Aβ42, bulk RNA-seq. The settings on record: 100 nM, 24 h, vs scrambled peptide. In kind it is cell-based. How it is done:
To determine whether the increased levels of Aβ alone could account for the observed changes in the LEC transcriptome, human LECs were incubated with 100 nM human Aβ1-42 (a monomeric/dimeric preparation) or control scrambled human Aβ1-42 peptide for 24 or 72 h (FIG. 5J).
Cultures of human LECs. […]
Bulk RNA sequencing. […] The mergedfastq files were then chastity filtered to remove low quality bases, trimmed using the trimmomatic software, and mapped to the UCSC […] genome using Salmon (Harrow, J. et al. GENCODE: the reference human genome annotation for The ENCODE Project. Genome Res 22, 1760-1774, (2012); Patro, R., Duggal, G., Love, M. I., Irizarry, R. A. & Kingsford, C. Salmon provides fast and bias-aware quantification of transcript expression. Nat Methods 14, 417-419, (2017)). […] The resulting transcript abundances were read into R and summarized using tximport (Soneson, C., Love, M. I. & Robinson, M. D. Differential analyses for RNA-seq: transcript-level estimates improve gene-level inferences. F1000Res 4, 1521, (2015)). […]

The test system of test [1] is meningeal lymphatic vessels. The settings on record: Example 4 of WO2017/210343; cited from earlier work.
A further test has as its system APPswe mice. Put plainly: Brain Aβ plaques in aged APPswe mice after i.c.m. AAV1-mVEGF-C plus anti-Abeta antibody. In kind it is in vivo, mouse. The settings on record: with anti-amyloid beta antibody, vs eGFP vector. An excerpt:
Age of APPswe mice and treatment regimen of anti-amyloid beta antibody with AA1 vector expressing VEGF-c or eGFB via i.c.m are shown in FIG. 3A. Results of behavioral tests (open field (OF), novel location recognition (NLR) and contextual fear conditioning (CFC)) are shown in FIGS. 3B-3D. […] Time investigating one of the object location (% of total time investigating objects) in the training trial and time investigating the novel object location (% of total time investigating) in the NLR test are shown in FIG. 3C. Representative images of the brain sections of APPswe mice treated with anti-Abeta antibody and with AAV1-CMV-eGFP or AAV1-CMV-mVEGF-C are shown in FIG. 3E. Brain sections were stained for Aβ and with DAPI; scale bar, 1 mm. FIGS. 3F-3G show plaque density (number of plaques per mm^2), average size (m^2) and coverage (% of brain section) in the cortex and amygdala or in the hippocampus. Results in FIGS. 3B-3D, 3F, and 3G are presented as mean s.e.m.; n=11 per group; Two-tailed unpaired Student's T test.
Intra-cisterna magna and intravenous injections. Mice were anaesthetized by intraperitoneal (i.p.) injection of a mixed solution of ketamine (100 mg/Kg) and xylazine (10 mg/Kg) in saline. […]
Immunohistochemistry, imaging and quantifications. […]

A further test concerns 5×FAD mice. The experiment in a line: Meningeal lymphatic and blood vessel morphology after i.c.m. AAV1-mVEGF-C plus anti-Abeta antibody. In kind it is in vivo, mouse. The settings on record: adult 5×FAD mice, AAV1 vector i.c.m., meningeal whole mounts. How it is done:
Adult 5×FAD mice were treated with a combination of VEGF-c and an antibody that binds amyloid beta (ABETA Mab1) administered into the cisterna magna (i.c.m). After administration of AAV1 vector expressing VEGF-c or eGFP and the antibody according to schematic shown in FIG. 1A, brain and meningeal morphology was observed. Representative images of the meningeal whole-mounts of 5×FAD mice treated with different combinations of mIgG2a or monoclonal anti-amyloid beta antibody (“ABETA Ab”) with AAV1-CMV-eGFP or AAV1-CMV-mVEGF-C are shown in FIG. 1B. Meninges were stained for LYVE-1 and CD31; scale bar, 1 mm; inset, 300 m (FIG. 1B) Measurements of transverse sinus diameter, coverage by LYVE-1negCD31^+ blood vessels, total number of lymphatic branches, transverse sinus lymphatic vessel diameter and coverage by LYVE-1+ lymphatic vessels (See FIGS. 1C-1G). Results in FIGS. 1C-1G are presented as mean±s.e.m.; n=7 in eGFP+mIgG2a, n=6 in eGFP+ABETA Ab, in mVEGF-C+mIgG2a and in mVEGF-C+ABETA Ab; Two-way ANOVA with Sidak's multiple comparison test. In FIGS. 1D and 1G, the units for the Y-axis are percentage of field of view (“% FOV”).
Science 352, 712-716, (2016)) or microhemorrhages in the brain and meninges (Salloway, S. et al. Two phase 3 trials of bapineuzumab in mild-to-moderate Alzheimer's disease. […]

With “Aβ1-42: synthetic monomeric/dimeric human amyloid beta 1-42 peptides (Anaspec AS-20276)”, in the test on human LECs, the “gene expression in human LECs” value is “Changes in gene expression”.

B1: VEGF-c: VEGFR3 agonist polypeptide (SEQ ID NO: 1), flow modulator; in Examples 1-3 delivered by AAV1 vector expressing VEGF-c (protein, listed as Homo sapiens)
chain: MHLLGFFSVACSLLAAALLPGPREAPAAAAAFESGLDLSDAEPDAGEATAYASKDLEEQLRSVSSVDELMTVLYPEYWKMYKCQLRKGGWQHNREQANLNSRTEETIKFAAAHYNTEILKSIDNEWRKTQCMPREVCIDVGKEFGVATNTFFKPPCVSVYRCGGCCNSEGLQCMNTSTSYLSKTLFEITVPLSQGPKPVTISFANHTSCRCMSKLDVYRQVHSIIRRSLPATLPQCQAANKTCPTNYMWNNHICRCLAQEDFMFSSDAGDDSTDGFHDICGPNKELDEETCQCVCRAGLRPASCGPHKELDRNSCQCVCKNKLFPSQCGANREFDENTCQCVCKRTCPRNQPLNPGKCACECTESPQKCLLKGKKFHHQTCSCYRRPCTNRQKACEPGFSYSEEVCRCVPSYWKRPQMS
Consider B1, for which, in test [1], the “diameters of meningeal lymphatic vessels” value is “increase the diameters of meningeal lymphatic vessels”. Further, in the test with APPswe mice, the “number of plaques in the cortex and amygdala” value was “reduced the number of plaques”; the “number of plaques in the hippocampus” value is listed as “reduced the number of plaques”. The lymphatic diameter result with 5×FAD mice is “increased lymphatic diameter”.

The record behind these values is patent US20230067811A1, “MODULATING LYMPHATIC VESSELS IN NEUROLOGICAL DISEASE” (University of Virginia Patent Foundation, priority 2020, published 2023).
